# Experimental data reported in US9539315B2, “Methods, agents and peptides for inhibiting matrix metalloproteinase-2 signaling” (New York University, priority 2011, dated 2017).
# Entries after “also recorded” stand apart in the source; their conditions may differ.
# Columns and labels:
# [1] = test system: DCs; experiment: Inflammatory cytokine secretion by DCs (cytokine bead array); format: cell-based, human; details: MMP-2 0.5 and 5 mg/ml, active or inactive; supernatants after eighteen hours
# Method: DCs were exposed to MMP-2 (0.5 and 5 mg/ml) in various forms: active, heat-inactivated (HI), inhibited by a specific inhibitor (IMMP-2), PEX (last third of MMP-2, amino acids 445-635 of SEQ ID NO: 1), overlapping peptides (20-mer) spanning MMP-2, or controls. Eighteen hours later, supernatants were harvested and TNFα, IL-6, IL-8 and […] levels were measured by cytokine bead array.
# (§1) PBMCs were purified from healthy-(HD) or cord blood- (CB) donors and plated at 40×10^6 cells/10 mL/dish in complete IMDM with 5% PHS. Cells were allowed to adhere for 2 h at 37° C. Non-adherent cells were removed. The monocyte-enriched fraction was supplemented with 100 UI/mL rhGMCSF and 300 UI/mL rhIL-4 (R&D Systems) on days 0, 2 and 4. Immature DCs were harvested on day 5 and matured using poly(I:C) at 5 μg/mL/10^6 DCs (Amersham). Secretion of IL-12p70, TNFα, IL-1β, IL-6, IL-8 and IL-10 was assessed on both immature and mature DCs using the Human Inflammatory Cytokine Cytometric Bead Array (BD Pharmingen).
# [2] = test system: OX40L; experiment: OX40L expression on DCs (staining); format: cell-based, human; details: DCs exposed for 2 days, stained for OX40L
# Method: A) DCs were exposed to MMP-2 […] or zymosan […], a known activator of NF-κB that acts via TLR2, for the indicated time. Cytosolic and nuclear fractions were isolated and p50 contents were measured by ELISA. […] C) OX40L over-expression on DCs induced by MMP-2 is inhibited by an inhibitor of NEMO, the NEMO binding domain (NBD) peptide, but not by the corresponding negative control, a NBD mutant.
# A) DCs were exposed to various TLR agonists for 2 days before cells were stained for OX40L. […] B) TLR2-transfected and engineered HEK cells were incubated with MMP-2 (5 mg/ml) or various controls. All conditions were also tested in the presence of a blocking antibody for TLR2. TNFα was used to activate NF-κB in a TLR-independent manner. Twenty hours later, NF-κB activation was measured.
# Antibody to OX40L (11C3.1) was from Biolegend. Blocking antibodies to TLR-2 and TLR-6 were from Invivogen. Antibodies to GATA-3, IL-4 (8D4-8), IL-5 (JES1-39D10), IL-13 (JES10-5A2), TNFα (MAb11), IFNγ (25723.11), perforin (δG9), GranzymeB (GB11), CD40 (5C3), CD80 (L307.4), CD83 (HB15e), CD86 (IT2.2), HLA-DR (TU36), fluorescein isothiocyanate-conjugated antibodies to CD45RA (HI100) and CD45RO (UCHL1), and antibody to CD4 (RPA-T4) were purchased from BD Biosciences Pharmingen. Alexa fluor 488-conjugated antibody to IL-17 (eBio64DEC17), phycoerythrine-conjugated antibody to T-bet (4B10).
# as §1
# [3] = biological target: T1, TLR2/MyD88 complex (Homo sapiens, UniProt O60603); experiment: Co-immunoprecipitation of MMP-2 and TLR2 from moDCs or TLR2-transfected HEK cells; format: binding; details: n=3
# T1 construct: endogenous in cells; host or cells: human monocyte-derived dendritic cells (moDCs); alternatively TLR2-transfected HEK cells
# T1 sequence (O60603 21-784): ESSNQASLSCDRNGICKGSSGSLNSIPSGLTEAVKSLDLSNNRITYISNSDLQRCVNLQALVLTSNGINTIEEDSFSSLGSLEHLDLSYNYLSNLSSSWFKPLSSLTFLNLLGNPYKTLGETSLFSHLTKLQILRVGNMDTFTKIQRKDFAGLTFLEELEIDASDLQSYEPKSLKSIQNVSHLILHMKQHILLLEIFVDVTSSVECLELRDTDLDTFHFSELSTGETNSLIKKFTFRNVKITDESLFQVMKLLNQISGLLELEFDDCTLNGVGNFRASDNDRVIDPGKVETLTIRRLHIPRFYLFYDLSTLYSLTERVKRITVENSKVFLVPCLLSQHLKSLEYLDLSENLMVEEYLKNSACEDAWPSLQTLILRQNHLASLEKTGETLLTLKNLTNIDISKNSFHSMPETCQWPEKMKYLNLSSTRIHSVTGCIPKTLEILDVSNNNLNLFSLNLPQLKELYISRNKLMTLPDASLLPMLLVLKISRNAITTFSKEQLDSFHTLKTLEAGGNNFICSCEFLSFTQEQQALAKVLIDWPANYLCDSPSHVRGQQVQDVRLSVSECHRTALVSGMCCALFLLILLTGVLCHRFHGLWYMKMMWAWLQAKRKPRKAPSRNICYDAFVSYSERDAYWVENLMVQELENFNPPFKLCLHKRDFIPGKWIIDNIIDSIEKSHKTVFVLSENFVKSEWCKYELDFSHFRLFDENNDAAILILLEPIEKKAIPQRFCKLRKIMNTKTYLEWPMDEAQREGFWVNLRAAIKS
# T1 sequence (Q99836 whole entry partner): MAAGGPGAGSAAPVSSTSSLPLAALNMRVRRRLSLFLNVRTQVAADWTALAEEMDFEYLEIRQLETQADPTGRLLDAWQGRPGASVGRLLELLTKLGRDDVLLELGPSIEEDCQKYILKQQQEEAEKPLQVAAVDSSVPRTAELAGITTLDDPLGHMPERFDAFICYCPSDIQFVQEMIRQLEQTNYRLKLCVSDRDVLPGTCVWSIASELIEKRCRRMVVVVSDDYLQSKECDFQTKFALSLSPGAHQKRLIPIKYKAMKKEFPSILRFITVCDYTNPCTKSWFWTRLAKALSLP
# Method: 10^6 moDCs/lane or TLR2-transfected HEK cells were incubated for 20 min with or without 5 μg/ml MMP-2 or MMP-9 before being lysed. TLR2 A) and MMP-2 B) were immunoprecipitated using specific antibodies and protein G-agarose. Western blots for MMP-2 (≈70 kD), TLR2 (≈85 kD) and MyD88 (≈35 kD) were then performed. C and D) depict band intensities (mean of 3 independent experiments±s.d.), which are represented as a percentage of the band intensity corresponding to untreated cells. Two-tailed Student's t-tests were used to compare MMP-2- to MMP-9-treated cells. p values≦0.05 (*) were considered statistically significant.
# To assess whether MMP-2 directly interacts with TLR2, moDCs and TLR2-transfected HEK cells were utlized. […] Similarly, TLR2 and MyD88 immunoprecipitated (n=3; p<0.05 compared to MMP-9-treated cells) with MMP-2 when moDCs were pre-treated with MMP-2 (FIG. 8B,D).
molecule,measurement,setting,value
matrix metalloproteinase-2 (protein) YNFFPRKPKWDKNQITYRIIGYTPDLDPETVDDAFARAFQVWSDVTPLRFSRIHDGEADIMINFGRWEHGDGYPFDGKDGLLAHAFAPGTGVGGDSHFDDDELWTLGEGQVVRVKYGNADGEYCKFPFLFNGKEYNSCTDTGRSDGFLWCSTTYNFEKDGKYGFCPHEALFTMGGNAEGQPCKFPFRFQGTSYDSCTTEGRTDGYRWCGTTEDYDRDKKYGFCPETAMSTVGGNSEGAPCVFPFTFLGNKYESCTSAGRSDGKMWCATTANYDDDRKWGFCPDQGYSLFLVAAHEFGHAMGLEHSQDPGALMAPIYTYTKNFRLSQDDIKGIQELYGASPDIDLGTGPTPTLGPVTPEICKQDIVFDGIAQIRGEIFFFKDRFIWRTVTPRDKPMGPLLVATFWPELPEKIDAVYEAPQEEKAVFFAGNEYWIYSASTLERGYPKPLTSLGLPPDVQRVDAAFNWSKNKKTYIFAGDKFWRYNEVKKKMDPGFPKLIADAWNAIPDNLDAVVDLQGGGHSYFFKGAYYLKLENQSLKSVKFGSIKSDWLGC,"inflammatory cytokine secretion by DCs (TNFα, IL-6, IL-8, IL-1β)",[1],secrete inflammatory cytokines; also recorded: significantly expressed
same,OX40L expression on DCs,[2],induce OX40L expression
same,MMP-2 and MyD88 immunoprecipitated with TLR2,[3]; cells pre-treated 20 min with 5 μg/ml MMP-2 (active or inactive) or MMP-9,immunoprecipitated
same,TLR2 and MyD88 immunoprecipitated with MMP-2,[3]; moDCs pre-treated with MMP-2,immunoprecipitated
